In paper PMC8298264, “Function of cofactor Akirin2 in the regulation of gene expression in model human neutrophil-like HL60 cells” (Bioscience Reports, 2021):

System: human HL60 cells
Test: SWATH-MS proteomics, differential protein representation, akirin2 KO vs WT HL60 cells
Type: cell-based
Conditions: KO vs WT HL60 cells; sheet "Under-represented in KO"
Outline: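 WT and akirin2 KO HL60 lysates (150 µg, n=3 biological replicates) were FASP trypsin-digested and desalted. A spectral library was built by IDA from 3 µg digests, then 5 µg per sample went to variable-window SWATH DIA over a 120-min 5–30% acetonitrile gradient. Identifications were accepted at 1% global FDR, with total-area-sum normalization.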

Molecule	Fold Change	Log (Fold Change)
sp¦P20340¦RAB6A_HUMAN (protein, UniProt P20340 2-208, looked up) Ras-related protein Rab-6A: STGGDFGNPLRKFKLVFLGEQSVGKTSLITRFMYDSFDNTYQATIGIDFLSKTMYLEDRTVRLQLWDTAGQERFRSLIPSYIRDSTVAVVVYDITNVNSFQQTTKWIDDVRTERGSDVIIMLVGNKTDLADKRQVSIEEGERKAKELNVMFIETSAKAGYNVKQLFRRVAAALPGMESTQDRSREDMIDIKLEKPQEQPVSEGGCSC	0.5176	-0.286

Same assay, conditions: SWATH-MS, akirin2 KO vs WT HL60 cells; over-represented in KO

Molecule	Fold Change	Log (Fold Change)
Alpha-2-macroglobulin (protein, UniProt P01023 24-1474, looked up) Alpha-2-macroglobulin: SVSGKPQYMVLVPSLLHTETTEKGCVLLSYLNETVTVSASLESVRGNRSLFTDLEAENDVLHCVAFAVPKSSSNEEVMFLTVQVKGPTQEFKKRTTVMVKNEDSLVFVQTDKSIYKPGQTVKFRVVSMDENFHPLNELIPLVYIQDPKGNRIAQWQSFQLEGGLKQFSFPLSSEPFQGSYKVVVQKKSGGRTEHPFTVEEFVLPKFEVQVTVPKIITILEEEMNVSVCGLYTYGKPVPGHVTVSICRKYSDASDCHGEDSQAFCEKFSGQLNSHGCFYQQVKTKVFQLKRKEYEMKLHTEAQIQEEGTVVELTGRQSSEITRTITKLSFVKVDSHFRQGIPFFGQVRLVDGKGVPIPNKVIFIRGNEANYYSNATTDEHGLVQFSINTTNVMGTSLTVRVNYKDRSPCYGYQWVSEEHEEAHHTAYLVFSPSKSFVHLEPMSHELPCGHTQTVQAHYILNGGTLLGLKKLSFYYLIMAKGGIVRTGTHGLLVKQEDMKGHFSISIPVKSDIAPVARLLIYAVLPTGDVIGDSAKYDVENCLANKVDLSFSPSQSLPASHAHLRVTAAPQSVCALRAVDQSVLLMKPDAELSASSVYNLLPEKDLTGFPGPLNDQDNEDCINRHNVYINGITYTPVSSTNEKDMYSFLEDMGLKAFTNSKIRKPKMCPQLQQYEMHGPEGLRVGFYESDVMGRGHARLVHVEEPHTETVRKYFPETWIWDLVVVNSAGVAEVGVTVPDTITEWKAGAFCLSEDAGLGISSTASLRAFQPFFVELTMPYSVIRGEAFTLKATVLNYLPKCIRVSVQLEASPAFLAVPVEKEQAPHCICANGRQTVSWAVTPKSLGNVNFTVSAEALESQELCGTEVPSVPEHGRKDTVIKPLLVEPEGLEKETTFNSLLCPSGGEVSEELSLKLPPNVVEESARASVSVLGDILGSAMQNTQNLLQMPYGCGEQNMVLFAPNIYVLDYLNETQQLTPEIKSKAIGYLNTGYQRQLNYKHYDGSYSTFGERYGRNQGNTWLTAFVLKTFAQARAYIFIDEAHITQALIWLSQRQKDNGCFRSSGSLLNNAIKGGVEDEVTLSAYITIALLEIPLTVTHPVVRNALFCLESAWKTAQEGDHGSHVYTKALLAYAFALAGNQDKRKEVLKSLNEEAVKKDNSVHWERPQKPKAPVGHFYEPQAPSAEVEMTSYVLLAYLTAQPAPTSEDLTSATNIVKWITKQQNAQGGFSSTQDTVVALHALSKYGAATFTRTGKAAQVTIQSSGTFSSKFQVDNNNRLLLQQVSLPELPGEYSMKVTGEGCVYLQTSLKYNILPEKEEFPFALGVQTLPQTCDEPKAHTSFQISLSVSYTGSRSASNMAIVDVKMVSGFIPLKPTVKMLERSNHVSRTEVSSNHVLIYLDKVSNQTLSLFFTVLQDVPVRDLKPAIVKVYDYYETDEFAIAEYNAPCSKDLGNA	4.777	0.6792
sp¦Q9NPF4¦OSGEP_HUMAN (protein, UniProt Q9NPF4 1-335, looked up) tRNA N6-adenosine …: MPAVLGFEGSANKIGVGVVRDGKVLANPRRTYVTPPGTGFLPGDTARHHRAVILDLLQEALTESGLTSQDIDCIAYTKGPGMGAPLVSVAVVARTVAQLWNKPLVGVNHCIGHIEMGRLITGATSPTVLYVSGGNTQVIAYSEHRYRIFGETIDIAVGNCLDRFARVLKISNDPSPGYNIEQMAKRGKKLVELPYTVKGMDVSFSGILSFIEDVAHRMLATGECTPEDLCFSLQETVFAMLVEITERAMAHCGSQEALIVGGVGCNVRLQEMMATMCQERGARLFATDERFCIDNGAMIAQAGWEMFRAGHRTPLSDSGVTQRYRTDEVEVTWRD	1.5342	0.1859
sp¦Q9UHD1¦CHRD1_HUMAN (protein, UniProt Q9UHD1 2-332, looked up) Cysteine and histidine-rich …: ALLCYNRGCGQRFDPETNSDDACTYHPGVPVFHDALKGWSCCKRRTTDFSDFLSIVGCTKGRHNSEKPPEPVKPEVKTTEKKELCELKPKFQEHIIQAPKPVEAIKRPSPDEPMTNLELKISASLKQALDKLKLSSGNEENKKEEDNDEIKIGTSCKNGGCSKTYQGLESLEEVCVYHSGVPIFHEGMKYWSCCRRKTSDFNTFLAQEGCTKGKHMWTKKDAGKKVVPCRHDWHQTGGEVTISVYAKNSLPELSRVEANSTLLNVHIVFEGEKEFDQNVKLWGVIDVKRSYVTMTATKIEITMRKAEPMQWASLELPAAKKQEKQKDATTD	1.486	0.1721
sp¦P09429¦HMGB1_HUMAN (protein, UniProt P09429 1-215, looked up) High mobility group protein B1: MGKGDPKKPRGKMSSYAFFVQTCREEHKKKHPDASVNFSEFSKKCSERWKTMSAKEKGKFEDMAKADKARYEREMKTYIPPKGETKKKFKDPNAPKRPPSAFFLFCSEYRPKIKGEHPGLSIGDVAKKLGEMWNNTAADDKQPYEKKAAKLKEKYEKDIAAYRAKGKPDAAKKGVVKAEKSKKKKEEEEDEEDEEDEEEEEDEEDEDEEEDDDDE	1.517	0.1809
sp¦P23921¦RIR1_HUMAN (protein, UniProt P23921 1-792, looked up) Ribonucleoside-diphosphate …: MHVIKRDGRQERVMFDKITSRIQKLCYGLNMDFVDPAQITMKVIQGLYSGVTTVELDTLAAETAATLTTKHPDYAILAARIAVSNLHKETKKVFSDVMEDLYNYINPHNGKHSPMVAKSTLDIVLANKDRLNSAIIYDRDFSYNYFGFKTLERSYLLKINGKVAERPQHMLMRVSVGIHKEDIDAAIETYNLLSERWFTHASPTLFNAGTNRPQLSSCFLLSMKDDSIEGIYDTLKQCALISKSAGGIGVAVSCIRATGSYIAGTNGNSNGLVPMLRVYNNTARYVDQGGNKRPGAFAIYLEPWHLDIFEFLDLKKNTGKEEQRARDLFFALWIPDLFMKRVETNQDWSLMCPNECPGLDEVWGEEFEKLYASYEKQGRVRKVVKAQQLWYAIIESQTETGTPYMLYKDSCNRKSNQQNLGTIKCSNLCTEIVEYTSKDEVAVCNLASLALNMYVTSEHTYDFKKLAEVTKVVVRNLNKIIDINYYPVPEACLSNKRHRPIGIGVQGLADAFILMRYPFESAEAQLLNKQIFETIYYGALEASCDLAKEQGPYETYEGSPVSKGILQYDMWNVTPTDLWDWKVLKEKIAKYGIRNSLLIAPMPTASTAQILGNNESIEPYTSNIYTRRVLSGEFQIVNPHLLKDLTERGLWHEEMKNQIIACNGSIQSIPEIPDDLKQLYKTVWEISQKTVLKMAAERGAFIDQSQSLNIHIAEPNYGKLTSMHFYGWKQGLKTGMYYLRTRPAANPIQFTLNKEKLKDKEKVSKEEEEKERNTAAMVCSLENRDECLMCGS	1.511	0.1792
sp¦P12236¦ADT3_HUMAN (protein, UniProt P12236 1-298, looked up) ADP/ATP translocase 3: MTEQAISFAKDFLAGGIAAAISKTAVAPIERVKLLLQVQHASKQIAADKQYKGIVDCIVRIPKEQGVLSFWRGNLANVIRYFPTQALNFAFKDKYKQIFLGGVDKHTQFWRYFAGNLASGGAAGATSLCFVYPLDFARTRLAADVGKSGTEREFRGLGDCLVKITKSDGIRGLYQGFSVSVQGIIIYRAAYFGVYDTAKGMLPDPKNTHIVVSWMIAQTVTAVAGVVSYPFDTVRRRMMMQSGRKGADIMYTGTVDCWRKIFRDEGGKAFFKGAWSNVLRGMGGAFVLVLYDELKKVI	1.53	0.1848
sp¦Q9GZU8¦PIP30_HUMAN (protein, UniProt Q9GZU8 1-254, looked up) PSME3-interacting protein: MDGGDDGNLIIKKRFVSEAELDERRKRRQEEWEKVRKPEDPEECPEEVYDPRSLYERLQEQKDRKQQEYEEQFKFKNMVRGLDEDETNFLDEVSRQQELIEKQRREEELKELKEYRNNLKKVGISQENKKEVEKKLTVKPIETKNKFSQAKLLAGAVKHKSSESGNSVKRLKPDPEPDDKNQEPSSCKSLGNTSLSGPSIHCPSAAVCIGILPGLGAYSGSSDSESSSDSEGTINATGKIVSSIFRTNTFLEAP	1.523	0.1827
sp¦P04083¦ANXA1_HUMAN (protein, UniProt P04083 2-346, looked up) Annexin A1: AMVSEFLKQAWFIENEEQEYVQTVKSSKGGPGSAVSPYPTFNPSSDVAALHKAIMVKGVDEATIIDILTKRNNAQRQQIKAAYLQETGKPLDETLKKALTGHLEEVVLALLKTPAQFDADELRAAMKGLGTDEDTLIEILASRTNKEIRDINRVYREELKRDLAKDITSDTSGDFRNALLSLAKGDRSEDFGVNEDLADSDARALYEAGERRKGTDVNVFNTILTTRSYPQLRRVFQKYTKYSKHDMNKVLDLELKGDIEKCLTAIVKCATSKPAFFAEKLHQAMKGVGTRHKALIRIMVSRSEIDMNDIKAFYQKMYGISLCQAILDETKGDYEKILVALCGGN	1.503	0.1771
sp¦P52789¦HXK2_HUMAN (protein, UniProt P52789 1-917, looked up) Hexokinase-2: MIASHLLAYFFTELNHDQVQKVDQYLYHMRLSDETLLEISKRFRKEMEKGLGATTHPTAAVKMLPTFVRSTPDGTEHGEFLALDLGGTNFRVLWVKVTDNGLQKVEMENQIYAIPEDIMRGSGTQLFDHIAECLANFMDKLQIKDKKLPLGFTFSFPCHQTKLDESFLVSWTKGFKSSGVEGRDVVALIRKAIQRRGDFDIDIVAVVNDTVGTMMTCGYDDHNCEIGLIVGTGSNACYMEEMRHIDMVEGDEGRMCINMEWGAFGDDGSLNDIRTEFDQEIDMGSLNPGKQLFEKMISGMYMGELVRLILVKMAKEELLFGGKLSPELLNTGRFETKDISDIEGEKDGIRKAREVLMRLGLDPTQEDCVATHRICQIVSTRSASLCAATLAAVLQRIKENKGEERLRSTIGVDGSVYKKHPHFAKRLHKTVRRLVPGCDVRFLRSEDGSGKGAAMVTAVAYRLADQHRARQKTLEHLQLSHDQLLEVKRRMKVEMERGLSKETHASAPVKMLPTYVCATPDGTEKGDFLALDLGGTNFRVLLVRVRNGKWGGVEMHNKIYAIPQEVMHGTGDELFDHIVQCIADFLEYMGMKGVSLPLGFTFSFPCQQNSLDESILLKWTKGFKASGCEGEDVVTLLKEAIHRREEFDLDVVAVVNDTVGTMMTCGFEDPHCEVGLIVGTGSNACYMEEMRNVELVEGEEGRMCVNMEWGAFGDNGCLDDFRTEFDVAVDELSLNPGKQRFEKMISGMYLGEIVRNILIDFTKRGLLFRGRISERLKTRGIFETKFLSQIESDCLALLQVRAILQHLGLESTCDDSIIVKEVCTVVARRAAQLCGAGMAAVVDRIRENRGLDALKVTVGVDGTLYKLHPHFAKVMHETVKDLAPKCDVSFLQSEDGSGKGAALITAVACRIREAGQR	1.502	0.1767
